Laboratory results as given in the nanobody polyreactivity screen of Harvey et al. (2022).

Experiment: yeast display, Sf9 membrane polyspecificity reagent, FACS + sequencing; frameworks hold sequencing errors
Procedure, shortened: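 A nanobody's polyreactivity label depends on the gate it was sorted from. Yeast display cells were stained with 10% biotinylated, detergent-solubilized Sf9 membrane reagent for 1 hour at 4 °C, enriched on streptavidin microbeads and sorted by FACS. The low and high (top ~1%) gates were set on anti-HA fluorescence for expression and streptavidin fluorescence for reagent binding.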

With “QFQLVESGGGLVQAGGSLRLSCAASGFIIRVNAMAWYRQAPGTERQLVATITWNGGSTYYADSVKGRFTISRDNAKNTVYLQMNSLKPDDTAVYYCNRVRYRGYYPGPYSYSYDYWGQGTQVTVSS” as the sequence, how does the “polyreactivity (PSR sort gate)” value read?
The value was “low polyreactivity”.

For “QFQLVESGGGLVQAGGSLRLSCAASGFTFDNYVMGWYRQAPGKERELVAAISKSGTSTYYADSVKGRFTISRDNAKNTVYLQMNSLKPEDTAVYYCAAALPGYGDYYYWGQGTQVTVSS”, which “polyreactivity (PSR sort gate)” value is on record?
The value was “high polyreactivity”.

With “QFQLVESGGGLVQAGGSLRLSCAASGFTFWYYAMGWYRQAPGKERELVARITSRGADTYADSVKGRFTISRDNAKNTVYLQMNSLKPEDTAVYYCAVDPGFSWYEQYDYWGQGTQVTVST” as the sequence, how does the “polyreactivity (PSR sort gate)” value read?
The value was “low polyreactivity”.

For “QFQLVESGGGLVQAGGSLRLSCAASGFTFYYYTMGWYRQAPGKERELVAAITWRGGSTNYADSVKGRFTISRDNAKNTVYLQMNSLKPEDTAVYYCAAVTYWFWPGMDYWGQGTQVTVSS”, which “polyreactivity (PSR sort gate)” value is on record?
The value was “low polyreactivity”.

With “QFQLVESGGGLVQAGGSLRLSCAASGFTIYLYTMGWYRQAPGKERELVATISWSGASTYYADSVKGRFTISRDNAKNTVYLQMNSLKPEDTAVYYCATRYRYRYWGQGTQVTVSS” as the sequence, how does the “polyreactivity (PSR sort gate)” value read?
Its value is “high polyreactivity”.

Which “polyreactivity (PSR sort gate)” value does the source give for “QFQLVESGGGLVQAGGSLRLSCAASGGTFNQYAMGWYRQAPGKEREFVASISRRGGSTYYADSVKGRFTISRDNAKNTVDLQMNSLKPEDTAVYYCAADAFFRLDYYYWGQGTQVTVSS” here?
Its value is “high polyreactivity”.

Which “polyreactivity (PSR sort gate)” value does the source give for “QFQLVESGGGLVQAGGSLRLSCAASGIIFGNNAMGWYRQAPGKERELVAAIRWSTGTTYYADSVKGRFTISRDNAKNTVYLQMNSLKPEDTAVYYCAARLRREYGYWGQGTQVTVSS” here?
The value was “high polyreactivity”.

Which “polyreactivity (PSR sort gate)” value does the source give for “QFQLVESGGGLVQAGGSLRLSCAASGIIFSLYAMGWYIQAPGKERELVAAITTGGRTYYADSVKGRFTISRDNAKNTVYFQMNSLKPEDTAVYYCAAQGPWQGGTTLSTNRGYWGQGTQVTVSS” here?
The value was “high polyreactivity”.

With “QFQLVESGGGLVQAGGSLRLSCAASGIILAYYAMGWYRKEPGKERELVSSINRSGGSTYYADSVKGRFTISRDNAKNTVYLQMISLKPEYTAVYYCAATNRGVGQRSYRYYYWGQGTQVSVSS” as the sequence, how does the “polyreactivity (PSR sort gate)” value read?
Its value is “high polyreactivity”.

With “QFQLVESGGGLVQAGGSLRLSCAASGIMFGYYAMGWYRQAPGKERELVAALTRSGGSTYYADSVKGRFTISRDNAKNTVYLQLNSLKPEDTALYYCNGDDDGRVSSTIVEYWGQGTQVTVSS” as the sequence, how does the “polyreactivity (PSR sort gate)” value read?
The value was “low polyreactivity”.

With “QFQLVESGGGLVQAGGSLRLSCAASGITFFPYAMGWYRQAPGKERELVASISDGGGTNYADSVKGRFTISRDNAKNTVYLQMNSLKPEDTAVYYCATDASTYAYYGGDYWGQGTQVTVSS” as the sequence, how does the “polyreactivity (PSR sort gate)” value read?
Its value is “low polyreactivity”.

With “QFQLVESGGGLVQAGGSLRLSCAASGITFYGNAKGWYRQAPGKVREFVAAITVDGGSTYAVSVKGRFTISRDNAKNTVYLQMNSLKPEDTAVYYCNKAYLRRSLKSGYPYDSWGQGTQVTVSS” as the sequence, how does the “polyreactivity (PSR sort gate)” value read?
The value was “low polyreactivity”.

Which “polyreactivity (PSR sort gate)” value does the source give for “QFQLVESGGGLVQAGGSLRLSCAASGLTIYSYSMGWYRQAPGKERELVAAITWRGGSTYYADSVKGRFTISRDHAKNTDYLQMNSVKPEDTALYYCAADPGPYGYYYWGQGNQVTVSS” here?
The value was “low polyreactivity”.

For “QFQLVESGGGLVQAGGSLRLSCAASGRIFASIGMGWYRQAPGKEREFVAAINRSGGSTYYADSVKGRFTISRVNAKNSVYLQMNSLKPEDTAVYYCNKDYLYSYLWGWKVYSYDYWGQGTQVTVSS”, which “polyreactivity (PSR sort gate)” value is on record?
Its value is “low polyreactivity”.

Which “polyreactivity (PSR sort gate)” value does the source give for “QFQLVESGGGLVQAGGSLRLSCAASGRIFEDSMGWYRQAPGKERELVAAIRWSGGGTYYADSVKGRFTISRDNAKNTVYLQMNSLKPEDTAVYYCATPGTGSVELYGYWGQGTQVTVSS” here?
Its value is “low polyreactivity”.

For “QFQLVESGGGLVQAGGSLRLSCAASGRIFFIYAMGWYRQAPGKERELVAGINRTGGSTNYADSVKGRFTISRDNAKNTVYLQMNSLKPEDTAVYYCAADIYDGGFDYWGQGTQVTVSS”, which “polyreactivity (PSR sort gate)” value is on record?
Its value is “low polyreactivity”.

With “QFQLVESGGGLVQAGGSLRLSCAASGRIFFRNAMGWYIQAPGKETELVADNTNGGSTNYADSEKGRFTISRDNAKYTVYLQMNSLNPEDTAVYYCAADTLGVYDGDYWGQGTQVTVSS” as the sequence, how does the “polyreactivity (PSR sort gate)” value read?
The value was “low polyreactivity”.

With “QFQLVESGGGLVQAGGSLRLSCAASGRIFGPYAMGWYRQAPGKERELVASISGGGSTNYADSVKGRFTISRDNAKNTVYLQMNSLKPEDTAVYYCAADVYYQYWGWWPYDYWGQGTQVTESS” as the sequence, how does the “polyreactivity (PSR sort gate)” value read?
The value was “low polyreactivity”.

Which “polyreactivity (PSR sort gate)” value does the source give for “QFQLVESGGGLVQAGGSLRLSCAASGRIFGVYARGWYRQAPGKERELVAAISSTGGSTYYADSVKGRFTISRDTAKNTVYLQMNSLKPEDTAVYYCEYDYWGQGTQVTVSS” here?
The value was “low polyreactivity”.

For “QFQLVESGGGLVQAGGSLRLSCAASGRIFVPNGMGWYRQAPGKERELVAVIDWSGGSTYYADSVKGRFTISRDNAKNTVYLQMNRLKPEDTAVYYCNAYPYDESDYWGQGTQVTVSS”, which “polyreactivity (PSR sort gate)” value is on record?
Its value is “low polyreactivity”.

Which “polyreactivity (PSR sort gate)” value does the source give for “QFQLVESGGGLVQAGGSLRLSCAASGRIFVRYAMGWYSQAPGKERQLVAAISKSGGSTYYADSVKGRYTISRDNAKNTVYLQMNSLNPEDTAVDYCAADYTGFFPDGSDVDFDYWGQGTQVTVSS” here?
The value was “low polyreactivity”.

Which “polyreactivity (PSR sort gate)” value does the source give for “QFQLVESGGGLVQAGGSLRLSCAASGRTFGRYTMGWYRPAPGKEREFVARINWNGGGTYYEDSVKGRFTISRDNAKNTVYLQMNSLKPEDTEVYYCNARKRGARFILGYDYSGQGTQVTVSS” here?
The value was “low polyreactivity”.

Which “polyreactivity (PSR sort gate)” value does the source give for “QFQLVESGGGLVQAGGSLRLSCAASGRTFGTYAMGWYRQAPGKEREVVAAISTRGGRTFYADSVKGRFTISRDNAKNTVYLQMNSLKPEDTAVYYCAARGTDPGHKYEYWGQGTQVTVSS” here?
The value was “high polyreactivity”.

Which “polyreactivity (PSR sort gate)” value does the source give for “QFQLVESGGGLVQAGGSLRLSCAASGRTFRSNTMGWYRQAPGKEREFVAVITYSAGSTYYADSVKGRFTISRDNAKNTVYLQMNSLKPEDTAVYYCAARVSWWPYDWYGYWGQGTQVTVSS” here?
Its value is “high polyreactivity”.

Which “polyreactivity (PSR sort gate)” value does the source give for “QFQLVESGGGLVQAGGSLRLSCAASGRTFTSNAMGWYRQAPGKERELVAAIDDGGSTNYADSVKGRFTISRDNAKNTVYLQMNSLKPEDTAVYYCATGYWELRYDYWGQGTQVTVSS” here?
The value was “low polyreactivity”.

For “QFQLVESGGGLVQAGGSLRLSCAASGRTFYDNTMGWYRQAPGKERELVAAITRNGGSTYYADSVKGRFTISRDNAKNTVYLQMNSLKPEDTAVYYCAAEGPSHRLNVRLVKGSDSWGQGTQVTVSS”, which “polyreactivity (PSR sort gate)” value is on record?
Its value is “low polyreactivity”.

Which “polyreactivity (PSR sort gate)” value does the source give for “QFQLVESGGGLVQAGGSLRLSCAASGRTISHNVMGWYRQAPGKEWELVAAISRNGGRTYYADSVKGRFTISRDNAKNTVYLQLNSLKTEDTAVYYCAAEAYPEYYYWGLGTQVTVSS” here?
Its value is “high polyreactivity”.

Which “polyreactivity (PSR sort gate)” value does the source give for “QFQLVESGGGLVQAGGSLRLSCAASGRTLSSYDMGWYRQAPGKERELVAAISRGGSTYYADSVKGRFTISRDNAKNTVYLQMNSLKPEDTAVYYCAASFYGGYWGYDYWGQGTQVTVSS” here?
The value was “high polyreactivity”.

Which “polyreactivity (PSR sort gate)” value does the source give for “QFQLVESGGGLVQAGGSLRLSCAASGSIFGYYDMGWYRQAPGKERELVAAISWSGDTTYYADSVKGRFTISRDNAKNTVDLQMNILTPEDTAVYYCSAEFYDWLGGMGYWGQGTQVNVSS” here?
Its value is “low polyreactivity”.

With “QFQLVESGGGLVQAGGSLRLSCAASGSIFPNYAMGWYRQAPGKDRELVAVITQRGGRTYYADSVKGRFTISRDNAKNTVYLQMNSLKPEDTAVYYCAASYRGVPEYDSWGQGTQVTVSS” as the sequence, how does the “polyreactivity (PSR sort gate)” value read?
Its value is “low polyreactivity”.

With “QFQLVESGGGLVQAGGSLRLSCAASGSIFRGTAMGWYRQAPGKERELVAAINKSGGSTYYADSVKGRFTISRDNAKNTVYLQMNSLKPEDTAVYYCAARGYFWSSYKYDYWGQGTEVTVSS” as the sequence, how does the “polyreactivity (PSR sort gate)” value read?
The value was “high polyreactivity”.

With “QFQLVESGGGLVQAGGSLRLSCAASGSIFSVYTKGRYRQAPGKERELVAAISTGGGSTYYADSVKGRFTISRDNAKNTVYLQMNSLKPEDTALYYCATDYGWAPSYWYDSCGQGTQVTVSS” as the sequence, how does the “polyreactivity (PSR sort gate)” value read?
Its value is “low polyreactivity”.

For “QFQLVESGGGLVQAGGSLRLSCAASGSIFSYYAMGWYRQAPGKERELVAGITWSGGRTYYADSVKGRFTISRDNAKNTVYLQMNSLKPEDTAVYYCAAAVKRALDYWGQGTQVTVSS”, which “polyreactivity (PSR sort gate)” value is on record?
Its value is “high polyreactivity”.

With “QFQLVESGGGLVQAGGSLRLSCAASGSIFTLYDMGWYRQAPGNERELVAAISSGGGSTYYADSVKGRFTISRDNAKNTVYLQMNSLKPEDTAVYYCAARNRRAKYGDWGQGTQVTVSS” as the sequence, how does the “polyreactivity (PSR sort gate)” value read?
The value was “high polyreactivity”.

Which “polyreactivity (PSR sort gate)” value does the source give for “QFQLVESGGGLVQAGGSLRLSCAASGSIFVTNAMGWYRQAPGKERELVAAISSGGNTNYADSVKGRFTISRDNAKNTVYLQMNSLKPEDTAVYYCAKDPDKVDFVDMDYWGQGTQVTVSS” here?
Its value is “low polyreactivity”.

For “QFQLVESGGGLVQAGGSLRLSCAASGSIFYRYAMGSDRQAPGKERELVAAISTGGGSTKYADSVKGRFTISRHNAKNTVYLQMNSLKPEDTAVYYCAASRAVTQYSGGGYGGQGTQVTVSS”, which “polyreactivity (PSR sort gate)” value is on record?
Its value is “high polyreactivity”.

For “QFQLVESGGGLVQAGGSLRLSCAASGSIFYYNAMGCYRQAPGKEREVVAAISWSGGSTYYADSVKGRFTISRDNAKNTVYLQMNSLKPEDTAVYYCNAVGWYTYFYGSRKYNSWGQGTQVTVSS”, which “polyreactivity (PSR sort gate)” value is on record?
Its value is “low polyreactivity”.

For “QFQLVESGGGLVQAGGSLRLSCAASGSILVPNDMGWYRQAPGKEREFVAAITESDGSTYYADSVKGRFTISRDNAKNTVYLQMNSLKPEDTAVYYCASDSTGVTFVHFDYWGQGTQVTVSS”, which “polyreactivity (PSR sort gate)” value is on record?
Its value is “low polyreactivity”.

With “QFQLVESGGGLVQAGGSLRLSCAASGSTFDPNAMGGYRQAPGKERELVASITSRGGSTYYADSVKGRFTISRDNAKNTVYLQMNSLKPEDTAVYYCAAVGGATYSWNGYSWYPWHNYWGQGTQVTVSS” as the sequence, how does the “polyreactivity (PSR sort gate)” value read?
Its value is “low polyreactivity”.

For “QFQLVESGGGLVQAGGSLRLSCAASGSTFGTYAMGWYRQAPGKERELVAAISSGGSTYYADSVKGRFTISRDNAKNTVYLQMNSLKPEDTAVYYCAAGYYWYVWGFGYWGQGTQVTVSS”, which “polyreactivity (PSR sort gate)” value is on record?
The value was “low polyreactivity”.

Which “polyreactivity (PSR sort gate)” value does the source give for “QFQLVESGGGLVQAGGSLRLSCAASGSTFSNYAMGWYRQAPGKERELVAAISSRGGSTYYADSVKGRFTISRDHAKNTVNLQMISLKPEDTAVYYCATYYVYKLYYWGQGTQVTVSS” here?
The value was “high polyreactivity”.

With “QFQLVESGGGLVQAGGSLRLSCAASGSTFWTNAMGWYRQAPGKERELVAVISRGGSTNYADSVKGRFTISRDNEKNTVYLQMNSLKPEDTAVFYCAAASYLYGRYYYWGQGTQVTVSS” as the sequence, how does the “polyreactivity (PSR sort gate)” value read?
Its value is “high polyreactivity”.

Which “polyreactivity (PSR sort gate)” value does the source give for “QFQLVESGGGLVQAGGSLRLSCAATGSIFHYYAMGWYRHAPGKERELVAAINSSGGSRSYYADSVKGRFTISRDNAKNTVFLQMNSLKPVDTAVYYCAAEYRVVWRAYDYWGKGTQVTVSS” here?
The value was “low polyreactivity”.
